Experimental data from US20110003343, “CONJUGATES OF BIOMOLECULES TO NANOPARTICLES” (LIFE TECHNOLOGIES CORPORATION, published 2011).
Positions count from the first letter of the chain named.

Experiments:
[1] = target: Phi-29 (exo-) T373Y exo- (substitutions not given), T373Y (Bacteriophage phi29) (UniProt P03680); conditions: tpol, unit not shown; unit assumed
[2] = target: Phi-29 (exo-) T373R exo- (substitutions not given), T373R (Bacteriophage phi29) (UniProt P03680); conditions: tpol, unit not shown; unit assumed
[3] = target: Phi-29 (exo-) DNA polymerase exo- (substitutions not given) (Bacteriophage phi29) (UniProt P03680); conditions: tpol, unit not shown; unit assumed
[4] = target: T1, Phi29 DNA polymerase (HRP-treated quantum dot conjugate) (Bacteriophage phi29, UniProt P03680 P03680:1-575); experiment: FRET binding; 250 nM oligo; conditions: tags: His tag, label: 3' Alexa Fluor 647, hairpin with 5' overhang
T1 chain: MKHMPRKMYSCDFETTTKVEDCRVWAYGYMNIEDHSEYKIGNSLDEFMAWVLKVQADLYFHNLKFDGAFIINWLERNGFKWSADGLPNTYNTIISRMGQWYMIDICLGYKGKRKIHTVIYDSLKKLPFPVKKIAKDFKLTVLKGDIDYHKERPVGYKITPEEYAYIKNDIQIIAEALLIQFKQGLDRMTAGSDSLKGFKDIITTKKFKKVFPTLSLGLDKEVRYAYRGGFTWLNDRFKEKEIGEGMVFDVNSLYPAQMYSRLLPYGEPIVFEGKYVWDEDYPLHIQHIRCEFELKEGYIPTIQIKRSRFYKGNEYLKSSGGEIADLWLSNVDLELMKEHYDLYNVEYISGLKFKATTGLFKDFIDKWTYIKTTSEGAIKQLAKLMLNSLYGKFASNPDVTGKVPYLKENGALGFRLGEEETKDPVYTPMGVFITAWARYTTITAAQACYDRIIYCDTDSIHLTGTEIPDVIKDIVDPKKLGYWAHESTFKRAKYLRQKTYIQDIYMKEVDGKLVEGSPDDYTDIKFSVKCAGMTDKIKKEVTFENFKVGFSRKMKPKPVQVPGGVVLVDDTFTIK
Method: and 40 nM of the nanoparticle-polymerase conjugates in 50 mM Tris, 50 mM NaCl and 10 mM MgCl₂. The reaction was excited at 450 nm and emission (e.g., FRET) was detected as a ratio of intensities at 605/670 (dot emission/ALEXA FLUOR 647 emission).

[5] = target: T2, His-tagged F-linker Phi29 DNA polymerase D169A (exo-) (Bacteriophage phi29, UniProt P03680 SEQ:27-596); experiment: FRET binding; BSA-treated dots; dATP present; conditions: tags: His tag and F-linker, linked to quantum dot; label: 3' Alexa Fluor 647; hairpin with 5' overhang
T2 chain: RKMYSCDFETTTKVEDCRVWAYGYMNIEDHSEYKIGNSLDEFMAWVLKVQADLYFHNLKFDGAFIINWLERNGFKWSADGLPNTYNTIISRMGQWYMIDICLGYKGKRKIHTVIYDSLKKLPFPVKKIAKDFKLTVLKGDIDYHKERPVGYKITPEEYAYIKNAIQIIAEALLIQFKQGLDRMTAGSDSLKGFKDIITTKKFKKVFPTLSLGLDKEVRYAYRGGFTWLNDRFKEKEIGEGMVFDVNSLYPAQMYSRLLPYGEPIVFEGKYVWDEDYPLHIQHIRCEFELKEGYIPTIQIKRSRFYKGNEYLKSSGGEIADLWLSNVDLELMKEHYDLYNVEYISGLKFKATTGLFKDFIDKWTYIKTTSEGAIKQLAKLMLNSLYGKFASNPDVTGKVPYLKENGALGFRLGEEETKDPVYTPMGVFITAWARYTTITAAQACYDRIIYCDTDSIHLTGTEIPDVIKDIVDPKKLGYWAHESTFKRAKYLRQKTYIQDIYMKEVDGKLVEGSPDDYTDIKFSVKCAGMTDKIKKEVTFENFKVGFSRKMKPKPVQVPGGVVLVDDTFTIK
From the text: The binding reactions contained: 1× extension buffer, A1 nanoparticles-phi29 conjugates (or phi29 non-conjugated), oligonucleotide 229, and dATP. The binding reactions were serially diluted. […] The ratio of 605 nm/670 nm signals is depicted in FIG. 15C.

[6] = target: T2, His-tagged F-linker Phi29 DNA …; experiment: FRET binding; Mg/Mn buffer; untreated, GST- or UDG/UGI-treated dots; conditions: tags: His tag and F-linker, linked to quantum dot; label: 3' Alexa Fluor 647; hairpin with 5' overhang
[7] = target: T3, HP1 Phi29 DNA polymerase D12A/D66A (Bacteriophage phi29, UniProt P03680 SEQ:26-600); experiment: FRET binding; 50 mM Tris pH 7.5, 50 mM NaCl, 10 mM MgCl2, 0.5 mM MnCl2; oligo 199 or 192 used; conditions: tags: N-terminal His tag, linked to quantum dot; label: 3' Alexa Fluor 647; hairpin with 5' overhang
T3 chain: T1 chain with D12A, D66A

[8] = target: T4, PKA-tagged Phi29 DNA polymerase (Bacteriophage phi29, UniProt P03680 SEQ:30-599); experiment: FRET binding; conditions: label: 3' Alexa Fluor 647-dC; hairpin with 5' overhang
T4 chain: T2 chain with A164D
Method: 50 μl of the primer/template was transferred from each well of row two into 50 μl of the sample in each well of row one.
The microtiter plate was placed on the plate reader which was set to measure fluorescence at 605 nm and 670 nm with excitation at 450 nm. The results are depicted in FIG. 11. […] The ratio of 605 nm/670 nm signals is depicted in FIG. 11C.

With “CGTTAACCGCCCGCTCCTTTGCAAC / GTTGCAAAGGAGCGGGCG [stopped-flow template/primer]” the activity [1] was 14 ms, the activity [2] was 15 ms and the activity [3] was 11 ms.

TTATCTTTGTGGGTGACAGGTTTTTCCTGTCACC (structured_DNA) [AF647 hairpin (Example 15)]: binds [4].

TTTTTGCGGGTGACAGGTTTTTCCTGTCACCC (structured_DNA) [oligo 229]: binds [5].

TTATCTTTGTGGGTGACAGGTTTTTCCTGTCACCC (structured_DNA) [oligo 199]: binds [6]; binds [7].

TTATCTTTGTGGGTGACAGGTTTTTCCTGTCACCC (structured_DNA) [JX338]: binds [8].
